The target in experiment [1] is T1, VEGF (UniProt P15692-9 27-147, limits assumed).
T1 construct: Only the selection names the 121 isoform; also called VEGF(121)
T1 sequence (looked up): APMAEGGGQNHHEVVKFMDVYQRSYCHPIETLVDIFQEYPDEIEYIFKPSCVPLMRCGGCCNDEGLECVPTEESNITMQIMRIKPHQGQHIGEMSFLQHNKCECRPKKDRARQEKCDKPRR
In words: ELISA with purified soluble 14FN3 variant, OD450, one concentration (not given).

For experiment [2], the target named is T2, TNF-α (UniProt P01375 77-233, biotinylated).
T2 construct: also called TNF-alpha; biotintylated TNF-α soluble protein
In words: phage ELISA; wells with TNF, control or VEGF. On the procedure: (§1) After the third and fourth rounds of selection, a total of 373 clones were analyzed for TNF-α binding using phage ELISA. Briefly, phage from individual clones was produced by co-infection with M13K07 helper phage in 1 ml cultures in 96-deep well blocks. Phage-containing culture supernatants were then added to microtiter plates coated with the target protein. Following washes with PBS-0.1% Tween-20, bound phage was detected with a mouse anti-M13 antibody horseradish peroxidase conjugate (GE Biosciences) and TMB substrate (Pierce). Positive variants were then screened for binding specificity against VEG-F and nuetravidin plate only.

The target in experiment [3] is T1, VEGF. In words: phage ELISA; wells with TNF, control or VEGF. On the procedure:
as §1

Experiment [4] concerns the target T3, HMGB1 (UniProt P09429 1-215, limits assumed).
T3 construct: also called biotinylated HMGB1
T3 sequence (looked up): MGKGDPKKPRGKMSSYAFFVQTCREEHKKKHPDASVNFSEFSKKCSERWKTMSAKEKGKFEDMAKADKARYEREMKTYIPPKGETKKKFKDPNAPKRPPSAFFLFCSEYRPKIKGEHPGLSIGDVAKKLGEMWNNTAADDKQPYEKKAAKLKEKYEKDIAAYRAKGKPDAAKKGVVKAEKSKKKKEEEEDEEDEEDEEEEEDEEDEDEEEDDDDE
Briefly: Octet BLI.

Experiment [5] addresses T3, HMGB1. In words: competition ELISA: biotinylated HMGB1 pre-incubated with R2F8, then bound to immobilized RAGE (blocked ligand-receptor pair HMGB1/RAGE), detected with streptavidin-HRP and TMB.
For experiment [6], the target named is T2, TNF-α. In words: ELISA (OD450); wells with HMGB1, TNF or blank.
In experiment [7] the target is T2, TNF-α. Briefly: phage ELISA (OD450); wells with VEGF, TNF alfa or 2%MPBS only.
Experiment [8] addresses T1, VEGF. Briefly: Octet BLI, soluble protein.
Experiment [9] deals with T2, TNF-α. Briefly: phage display selection and ELISA.
The target in experiment [10] is T1, VEGF. In words: phage ELISA.
The target of experiment [11] is T2, TNF-α. In words: Octet BLI, biotinylated TNF-α on streptavidin tips; lower end of the range. On the procedure:
(§2) The target protein was biotintylated TNF-α soluble protein (R&D Systems) and is at a concentration of 0.25 ug/ml for loading onto the streptavidin sensor tips. […] The Octet was run using the manufacturers protocol for Basic Kinetic Assay.

Experiment [12] concerns the target T2, TNF-α. Briefly: Octet BLI, biotinylated TNF-α on streptavidin tips; upper end of the range. On the procedure:
as §2

For experiment [13], the target named is T2, TNF-α. In words: Octet BLI, biotinylated TNF-α on streptavidin tips. As for the experimental part: as §2

T2 sequence (P01375 77-233 limits assumed): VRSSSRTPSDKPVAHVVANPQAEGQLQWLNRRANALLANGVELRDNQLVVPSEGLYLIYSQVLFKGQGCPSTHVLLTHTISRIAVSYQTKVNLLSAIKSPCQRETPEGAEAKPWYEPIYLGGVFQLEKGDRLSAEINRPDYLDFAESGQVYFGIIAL

B1: TNF-α binder R4C5 (designed binder)
chain: NVSPPRRARVTDATETTITISWNSSYCHFYGFQVDAVPANGQTPIQRTISDYEYSYTITGLQPGTDYKIYLYTLNASCYGYHYYKPVVIDAST
notes: 14FN3 variant; on phage in phage ELISA, soluble 6xHis-tagged in ELISA; The short label C5 is tied to R4C5 by its name only
Take B1: in the experiment with VEGF [1], the binding result is “no binding”.

B2: TNF-α binder R42C10 (designed binder)
chain: NVSPPRRARVTDATETTITISWYHHEDDCYYHFYYFQVDAVPANGQTPIQRTILHGTYTSYTITGLQPGTDYKIYLYTLNASGFCSHSYKPVVIDAST
notes: 14FN3 variant; on phage in phage ELISA, soluble 6xHis-tagged in ELISA; The short label C10 is tied to R42C10 by its name only
For B2, the binding result in the experiment with VEGF [1] is “no binding”.

B3: TNF-α binder R4E9 (designed binder)
chain: NVSPPRRARVTDATETTITISWESYYYDCCYYIYYFQVDAVPANGQTPIQRTIYYPYTSYTITGLQPGTDYKIYLYTLNSYGYGYHYYKPVVIDAST
With B3, the figures for the binding result with TNF-α [2] and with VEGF [3] were “binds” and “no binding”, respectively.

B4: P1E8 anti-HMGB1 (designed binder)
chain: NVSPPRRARVTDATETTITISWRAAESAIARFQVDAVPANGQTPIQRTIKRTKHTYTITGLQPGTDYKIYLYTLNDNARSSPVVIDAST
notes: 14FN3 variant; on phage in phage ELISA, soluble 6xHis-tagged in Octet
In the experiment with HMGB1 [4], B4 gave a Kd of 192 nM, a koff of 0.000325 s⁻¹ and an association rate constant (kon) of 1690 M⁻¹ s⁻¹.

B5: R2F8 anti-HMGB1 (designed binder)
chain: NVSPPRRARVTDATETTITIRWARSASEIARFQVDAVPANGQTPIQRTIKRSANIYTITGLQPGTDYKIYLYTLNDNARSSPVVIDAST
notes: 14FN3 variant; also called R2F8 HMGB1 FN3
For B5, in the experiment with HMGB1 [5], the “IC50 (read off the curve)” value was ~8 µg/mL. For the same molecule, in the experiment with HMGB1 [4], the Kd stood at 35.3 nM, the koff worked out at 0.000267 s⁻¹ and the kon was determined as 7580 M⁻¹ s⁻¹.

B6: R2E6 anti-HMGB1 (designed binder)
chain: NVSPPRRARVTDATETTITIRWGVAQSQVARFQVDAVPANGQTPIQRTIKRSVHTYTITGLQPGTDYKIYLYTLNDNARSSPVVIDAST
notes: as for B4
In the experiment with HMGB1 [4], B6 registered a Kd of 189 nM, a koff of 0.000955 s⁻¹ and a kon of 5040 M⁻¹ s⁻¹. The binding result with TNF-α [6] is “no binding”.

B7: R2D4 anti-HMGB1 (designed binder)
chain: NVSPPRRARVTDATETTITISWGVAESEVTRFQVDAVPANGQTPIQRTIKRSKHAYTITGLQPGTDYKIYLYTLNDNARSSPVVIDAST
notes: as for B4
As to B7, in the experiment with HMGB1 [4], binding was put at a Kd of 159 nM, the koff was 0.000206 s⁻¹ and the on-rate constant (kon) amounted to 1300 M⁻¹ s⁻¹. Also, in the experiment with TNF-α [6], the binding result is given as “no binding”.

B8: R2G2 anti-HMGB1 (designed binder)
chain: NVSPPRRARVTDATETTITISWRAAESAIARFQVDAVPANGQTPIQRTIKRTKHTYTITGLQPGTDYKIYLYTLNDNARSSPVVIDAST
notes: as for B4
In the experiment with HMGB1 [4], B8 had a Kd of 266 nM, a koff of 0.00049 s⁻¹ and a kon of 1840 M⁻¹ s⁻¹. Besides, the binding result with TNF-α [6] is “no binding”.

B9: P2C6 anti-HMGB1 (designed binder)
chain: NVSPPRRARVTDATETTITIRWGVAPSQVIRFQVDAVPANGQTPIQRTIKRSVHAYTITGLQPGTDYKIYLYTLNDNARSSPVVIDAST
notes: as for B4
In the experiment with HMGB1 [4], B9 returned a Kd of 104 nM, a koff of 0.000991 s⁻¹ and a kon of 9540 M⁻¹ s⁻¹.

B10: R2B5 anti-HMGB1 (designed binder)
chain: NVSPPRRARVTDATETTITIRWTVAESKIARFQVDAVPANGQTPIQRTIKRSKHSYTITGLQPGTDYKIYLYTLNDNARSSPVVIDAST
notes: as for B4
On to B10, for which, in the experiment with HMGB1 [4], binding was characterised by a dissociation constant (Kd) of 65.8 nM, the koff is 0.000287 s⁻¹ and the kon was determined as 4350 M⁻¹ s⁻¹.

B11: TNF-α binder A4A9 (designed binder)
chain: NVSPPRRARVTDATETTITISWYPYYDDCGYYISYFQVDAVPANGQTPIQRTIPDSYSSYTITGLQPGTDYKIYLYTLNDADDGHPYSKPVVIDAST
Regarding B11, the binding result with TNF-α [2] is reported as “binds”; with VEGF [3], “no binding”.

B12: P2F3 anti-HMGB1 (designed binder)
chain: NVSPPRRARVTDATETTITIRWGVPHSFQVDAVPANGQTPIQRTIKRGVRSYTITGLQPGTDYKIYLYTLNDNARSSPVVIDAST
notes: as for B4
B12 registered a koff in the experiment with HMGB1 [4] of 0.000271 s⁻¹.

B13: R1 D4 anti-VEGF (designed binder)
chain: NVSPPRRARVTDATETTITIPWEVAGGPIISFQVDAVPANGQTPIQRTITPDATGYTITGLQPGTDYKIYLYTLNDNARSSPVVIDAST
notes: 14FN3 variant; on phage in phage ELISA, soluble His-tagged protein in Octet
For the molecule B13, in the experiment with TNF-α [7], the binding result is recorded as “no binding”. Further, the koff with VEGF [8] came out at 0.00017 s⁻¹.

B14: R1 F1 anti-VEGF (designed binder)
chain: NVSPPRRARVTDATETTITIPWALAGGPIISFQVDAVPANGQTPIQRTITPDIRGYTITGLQPGTDYKIYLYTLNDNARSSPVVIDAST
With B14, the binding result with TNF-α [7] was “no binding”.

B15: TNF-α binder R3A10 (designed binder)
chain: NVSPPRRARVTDATETTITISWYPYYYYCGYHYSYFQVDAVPANGQTPIQRTIYGYYTYYTITGLQPGTDYKIYLYTLNSSDYCYYSYYPVVIDAST
Regarding B15, the binding result with TNF-α [9] is given as “binds”; with VEGF [10], “no binding”.

B16: R1G1 anti-VEGF (designed binder)
chain: NVSPPRRARVTDATETTITIRWAGSPGPVDSFQVDAVPANGQTPIQRTIQTSETGYTITGLQPGTDYKIYLYTLNDNARSSPVVIDAST
On to B16, for which, in the experiment with TNF-α [7], the binding result is recorded as “no binding”.

B17: TNF-α binder R4F7 (designed binder)
chain: NVSPPRRARVTDATETTITISWYPYEYDDCYYYIYYFQVDAVPANGQTPIQRTIPDYESYYTITGLQPGTDYKIYLYTLNSYGFCPPSYKPVVIDAST
As for B17, the binding result with TNF-α [2] is “binds”; with VEGF [3], “no binding”.

B18: TNF-α binder R41A6 (designed binder)
chain: NVSPPRRARVTDATETTITISWEHSEDDCYSYIYYFQVDAVPANGQTPIQRTISGYETYYTITGLQPGTDYKIYLYTLNSAGFCPPYSKPVVIDAST
notes: 14FN3 variant; On phage (p3 fusion) in phage ELISA; soluble with 6xHis tag (phagemid also c-myc tag; pET-20b C-terminal hexahistidine) in ELISA and Octet
Turning to B18, the Kd with TNF-α [11] was ≥ 20 nM; in the experiment with TNF-α [12] it was ≤ 100 nM. The binding result in the experiment with VEGF [1] is “no binding”.

B19: A6+Fc (Fc fusion)
chain: NVSPPRRARVTDATETTITISWEHSEDDCYSYIYYFQVDAVPANGQTPIQRTISGYETYYTITGLQPGTDYKIYLYTLNSAGFCPPYSKPVVIDAST
notes: Expressed in E. coli BL-21(DE3); also called R41A6 Fc fusion protein; pET-20b+TNF A6+Fc #39; not shown: C-terminal hexahistidine tag of pET-20b
In the case of B19, in the experiment with TNF-α [13], the Kd was in the range of 12 to 25 nM and the “fold improvement of Koff against monomeric A6” value stood at 2 fold.

B20: TNF-α binder R4A8 (designed binder)
chain: NVSPPRRARVTDATETTITISWYPSEDYCGSSIYGFQVDAVPANGQTPIQRTIHGNETSYTITGLQPGTDYKIYLYTLNSAGFCPPYSKPVVIDAST
Turning to B20, the binding result in the experiment with TNF-α [2] is “binds”; with VEGF [3], “no binding”.

B21: TNF-α binder R4G4 (designed binder)
chain: NVSPPRRARVTDATETTITISWEPSEYDCYYSIYYFQVDAVPANGQTPIQRTIHDSYNYYTITGLQPGTDYKIYLYTLNSAGFCPPYSKPVVIDAST
For B21, the binding result with TNF-α [2] is “binds”; with VEGF [3] it was “no binding”.

Values taken from patent US20140135474A1 (PROTELICA, published 2014).
